{"source": "paper PMC6529637", "binders": {"B1": {"name": "regulator of capsule synthesis protein F (RcsF), P69411 16-134 (natural protein)", "chain": "CSMLSRSPVEPVQSTAPQPKAEPAKPKAPRATPVRIYTNAEELVGKPFRDLGEVSGDSCQASNQDSPPSIPTARKRMQINASKMKANAVLLHSCEVTSGTPGCYRQAVCIGSALNITAK", "modifications": "here or on the partner: lipid moiety on the N-terminal domain (lipoprotein)"}}, "molecular_target": "BamA (E. coli (endogenous in MC4100-derived strains)), P0A940", "assay": "cross-linking; in vivo formaldehyde cross-linking (0.7%, 12 min, room temperature, cells in PBS pH 7.6), SDS-PAGE and immunoblot with anti-RcsF and anti-BamA; strains grown in glucose minimal medium at 30°C; backgrounds: WT, ΔbamE, bamA101, bamB::Kan, bamD(R197L), bamD(L13P), bamA(F494L) and combinations", "conditions": "remark: other sources report otherwise", "data": [{"binder": "B1", "values": [{"measurement": "fraction of BamA cross-linked to RcsF (ΔbamE strain)", "result": 30, "unit": "%"}]}]}
